Substrate in this data set: O=P(O)(O)OC[C@H]1OC(O)[C@@H](O)[C@@H](O)[C@@H]1O
The data set can be described thus: purified protein. The data set is classed as biochemical, Bacillus amyloliquefaciens. The conditions noted are these: 0.5 mM Co2+ (general method), phosphate pH 7.5, 50 °C.

B1: BsM6PI (Bacillus subtilis subsp. subtilis str. 168; K96Q) (protein)
chain: MTQSPIFLTPVFKEKIWGGTALRDRFGYSIPSESTGECWAISAHPKGPSTVANGPYKGKTLIELWEEHREVFGGVEGDRFPLLTKLLDVKEDTSIQVHPDDYYAGENEEGELGKTECWYIIDCKENAEIIYGHTARSKTELVTMINSGDWEGLLRRIKIKPGDFYYVPSGTLHALCKGALVLETQQNSDATYRVYDYDRLDSNGSPRELHFAKAVNAATVPHVDGYIDESTESRKGITIKTFVQGEYFSVYKWDINGEAEMAQDESFLICSVIEGSGLLKYEDKTCPLKKGDHFILPAQMPDFTIKGTCTLIVSHI
notes: full length, N-terminal His6 fusion (pET28a, BamHI/SalI), E. coli BL21(DE3), Ni-NTA; primers encode N-terminus MTQS and C-terminus IVSHI
Broadly, the Km is the substrate concentration at which the rate is half of its maximum. In the case of B1, the Km turned out to be 12 mM.

The values above are taken from PMC4718643, “Characterization of a Mannose-6-Phosphate Isomerase from Bacillus amyloliquefaciens and Its Application in Fructose-6-Phosphate Production” (PLoS ONE, 2015).
